T1: hiR2-FL-T522A-T7 (human, UniProt Q6PJF5 1-856)
T1 sequence: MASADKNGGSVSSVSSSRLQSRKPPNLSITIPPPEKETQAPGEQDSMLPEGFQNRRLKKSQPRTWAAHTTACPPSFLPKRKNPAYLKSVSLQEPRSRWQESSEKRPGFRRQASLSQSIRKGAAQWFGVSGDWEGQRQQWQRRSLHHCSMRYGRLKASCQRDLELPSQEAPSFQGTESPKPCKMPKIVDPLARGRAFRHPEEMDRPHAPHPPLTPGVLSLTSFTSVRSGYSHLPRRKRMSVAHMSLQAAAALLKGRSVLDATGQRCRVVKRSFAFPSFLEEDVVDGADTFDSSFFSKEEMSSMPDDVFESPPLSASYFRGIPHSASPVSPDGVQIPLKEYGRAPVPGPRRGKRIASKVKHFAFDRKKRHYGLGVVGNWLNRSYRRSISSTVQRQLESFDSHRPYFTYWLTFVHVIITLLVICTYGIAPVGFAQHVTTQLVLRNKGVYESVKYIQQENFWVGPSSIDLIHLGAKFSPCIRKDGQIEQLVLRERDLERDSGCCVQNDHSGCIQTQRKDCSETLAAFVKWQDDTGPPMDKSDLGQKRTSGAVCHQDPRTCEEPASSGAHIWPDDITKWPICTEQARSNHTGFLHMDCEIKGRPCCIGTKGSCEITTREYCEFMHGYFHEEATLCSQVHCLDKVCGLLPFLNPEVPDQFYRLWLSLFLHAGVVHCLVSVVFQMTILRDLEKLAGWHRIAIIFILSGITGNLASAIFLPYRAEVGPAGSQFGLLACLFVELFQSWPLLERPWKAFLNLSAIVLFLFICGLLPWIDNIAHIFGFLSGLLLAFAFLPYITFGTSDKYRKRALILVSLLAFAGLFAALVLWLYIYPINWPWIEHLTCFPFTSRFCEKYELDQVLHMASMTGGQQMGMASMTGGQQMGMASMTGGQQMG

T2: hiR2-FL-N503A-T7 (human, UniProt Q6PJF5 1-856)
T2 sequence: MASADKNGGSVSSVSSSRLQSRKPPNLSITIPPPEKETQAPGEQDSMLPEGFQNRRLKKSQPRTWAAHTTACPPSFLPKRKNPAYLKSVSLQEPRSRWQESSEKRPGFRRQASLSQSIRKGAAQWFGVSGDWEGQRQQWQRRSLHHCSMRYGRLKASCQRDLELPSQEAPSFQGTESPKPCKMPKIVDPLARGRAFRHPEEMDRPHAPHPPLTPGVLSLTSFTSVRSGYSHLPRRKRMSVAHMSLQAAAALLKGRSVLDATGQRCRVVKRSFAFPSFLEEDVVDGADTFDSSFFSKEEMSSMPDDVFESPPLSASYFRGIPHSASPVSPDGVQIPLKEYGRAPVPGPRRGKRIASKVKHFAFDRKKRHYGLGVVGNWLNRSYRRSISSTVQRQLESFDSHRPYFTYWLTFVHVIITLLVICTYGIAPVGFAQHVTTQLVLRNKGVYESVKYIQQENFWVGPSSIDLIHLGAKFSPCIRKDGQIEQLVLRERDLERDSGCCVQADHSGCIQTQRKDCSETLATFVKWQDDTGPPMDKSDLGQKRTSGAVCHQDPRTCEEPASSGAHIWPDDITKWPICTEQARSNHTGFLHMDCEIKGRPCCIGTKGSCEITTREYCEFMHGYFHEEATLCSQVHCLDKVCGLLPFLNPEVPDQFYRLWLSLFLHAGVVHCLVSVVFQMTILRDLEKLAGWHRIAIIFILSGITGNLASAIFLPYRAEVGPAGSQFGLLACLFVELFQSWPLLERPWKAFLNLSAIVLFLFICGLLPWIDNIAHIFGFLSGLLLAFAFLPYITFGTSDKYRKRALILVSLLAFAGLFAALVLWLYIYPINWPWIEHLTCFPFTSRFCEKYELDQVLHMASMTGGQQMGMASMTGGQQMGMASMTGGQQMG

B1: antibody 48 (antibody, V domains shown)
VH: QVQLQQSGTELVRPGTSVKVSCKASGYAFTNYLIEWVKQRPGQGLEWIGVINPGSGFTKYNEKFKGKATLTADKSSSTVYMHLSSLTSEDSAVYFCARGLYRAMDYWGQGTSVTVSS
VL: DIQMTQSPASQSASLGESVTITCLASQTIATWLAWYQQKPGKSPQLLIYGATTLADGVPSRFSGGGSGTKFSFKISSLQAEDFVSYYCQQLYSTPYTFGGGTKLEIK
notes: mouse IgG, kappa light chain; also called clone #48; purified antibody 48
B2: antibody 50 (antibody, V domains shown)
VH: QVQLQQSGAELVRPGASVKVSCKASGYAFSNYLIEWVKQRPGQGLEWIGVINPGSGFTKYNEKFKGKATLTADKSSSTAYMQLSSLTSEDSAVYFCARGLYRAMDYWGQGTSVTVSS
VL: DIQMTQSPASQSASLGESVTITCLASQTIGTWLAWYQQKPGKSPQLLIYAAASLADGVPSRFSGGGSGTKFSFKISSLQAEDFVNYYCQQIYSTPYTFGGGTKLEIK
notes: mouse IgG, kappa light chain; also called clone #50; purified antibody 50

Tests used:
hiR2-FL-T522A-T7 = target: T1, hiR2-FL-T522A-T7; assay: FACS on MEF-DKO cells expressing the variant, 3 µg/ml antibody
Method in brief: (§1)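 Cells were stained with purified antibody at 3 μg/ml in FACS buffer for 1 hour on ice, with buffer-only controls. Bound antibody was detected with PE-conjugated goat anti-mouse IgG F(ab′)2 at 1:100, 1 hour on ice in the dark, followed by flow cytometry.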

hiR2-FL-N503A-T7 = target: T2, hiR2-FL-N503A-T7; assay: as above
Method in brief: as §1

| Binder | loss of binding vs wild type (hiR2-FL-T522A-T7) [%] | loss of binding vs wild type (hiR2-FL-N503A-T7) [%] |
| --- | --- | --- |
| B1 | ≥ 30 | ≥ 30 |
| B2 | ≥ 30 | ≥ 30 |
